The record followed here is publication PMC3234718.

Holding throughout (experiment): SPR
(In general: SPR reads the build-up and loss of mass on a sensor chip optically.)

Test [1] concerns the target C-propeptide trimer of human procollagen III (CPIII) (human) (UniProt P02461).
For test [2], the target named is CPIII-His (human) (UniProt P02461).
The target in test [3] is mini-procollagen III N306Q (human).

For “CUB1-CUB2 (minimal active fragment of PCPE-1) (domain or fragment)”, the KD(1) (heterogeneous ligand model, site 1) in test [1] worked out at 4.6 nM; in test [2] it was 12.8 nM; in test [3], 0.74 nM. Besides, the KD(2) (heterogeneous ligand model, site 2) is 28 nM in test [1], 27 nM in test [2] and 12.6 nM in test [3].

B1: procollagen C-proteinase enhancer-1 (PCPE-1) (natural protein)
chain: QTPNYTRPVFLCGGDVKGESGYVASEGFPNLYPPNKECIWTITVPEGQTVSLSFRVFDLELHPACRYDALEVFAGSGTSGQRLGRFCGTFRPAPLVAPGNQVTLRMTTDEGTGGRGFLLWYSGRATSGTEHQFCGGRLEKAQGTLTTPNWPESDYPPGISCSWHIIAPPDQVIALTFEKFDLEPDTYCRYDSVSVFNGAVSDDSRRLGKFCGDAVPGSISSEGNELLVQFVSDLSVTADGFSASYKTLPRGTAKEGQGPGPKRGTEPKVKLPPKSQPPEKTEESPSAPDAPTCPKQCRRTGTLQSNFCASSLVVTATVKSMVREPGEGLAVTVSLIGAYKTGGLDLPSPPTGASLKFYVPCKQCPPMKKGVSYLLMGQVEENRGPVLPPESFVVLHRPNQDQILTNLSKRKCPSQPVRAAASQD
For B1, the KD(1) (heterogeneous ligand model, site 1) in test [1] was determined as 4.7 nM; in test [2] it was 5.9 nM; in test [3], 0.66 nM. Moreover, the KD(2) (heterogeneous ligand model, site 2) in test [1] amounted to 17 nM; in test [2] it was 15 nM; in test [3], 10 nM.
